Source: paper PMC10284417

Molecular target: EtpA^1-606 (Enterotoxigenic Escherichia coli (ETEC))
Assay: dynamic light scattering; Zetasizer, 4°C, 1 mg/mL protein in 20 mM Tris pH 7.5, 150 mM NaCl

**Q.** With EtpA^1-606 (domain or fragment) as the substance, how does the stoichiometry N read?
**A.** The stoichiometry N was 2.
